Reference: paper PMC10419500, “FvWRKY50 is an important gene that regulates both vegetative growth and reproductive growth in strawberry”

Biological target: FvWRKY50-His (Fragaria vesca? (diploid strawberry; …, UniProt A0A2H4G369 6-213)
Assay: EMSA; 200-fold unlabeled probe used as competitor; EMSA buffer, salt, pH and temperature not given in the material
Conditions: protein: recombinant, tags: His (pET30a; also written His-FvWRKY50), blunt

Chain of FvWRKY50-His (Fragaria vesca? (A0A2H4G369 entry or part of it): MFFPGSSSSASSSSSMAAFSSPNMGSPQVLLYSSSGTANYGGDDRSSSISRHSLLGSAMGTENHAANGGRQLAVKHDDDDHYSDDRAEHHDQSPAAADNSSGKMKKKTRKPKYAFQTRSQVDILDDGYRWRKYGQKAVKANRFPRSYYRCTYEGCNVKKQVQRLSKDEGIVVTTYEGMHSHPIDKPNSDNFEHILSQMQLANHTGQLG

B1: proDFR probe W290 (dsDNA)
DNA 1: CTTATATCCACATCTTGACCGTTCAGTTTATAG
DNA 2: CTATAAACTGAACGGTCAAGATGTGGATATAAG
Q: Does B1 bind?
A: binds

B2: proCHI probe W1610 (dsDNA)
DNA 1: CTCATTTTACCAAGTTGACCCCTTCATTTG
DNA 2: CAAATGAAGGGGTCAACTTGGTAAAATGAG
Q: Does B2 bind?
A: binds

B3: proFT3 probe W982 (dsDNA)
DNA 1: GATCCATTTCCATTGACCAGACTCACCTCAC
DNA 2: GTGAGGTGAGTCTGGTCAATGGAAATGGATC
Q: Does B3 bind (label: biotin)?
A: binds
